Test results: patent publication US20020142976A1, “Materials and methods for modulating differentiation” (ICOS Corporation, priority 1998, published 2002)

Molecular target: T1, ATR (Mus musculus, UniProt Q9JKK8)
T1 construct: from tissue; host or cells: mouse testes extract
Test: MyoD phosphorylation (ATR kinase) assay with MyoD-derived peptide substrates
Type: biochemical
Conditions: in vitro kinase assay, 32P-γATP, room temperature 40 minutes
Procedure: ATR was captured on a 96 well plate previously coated first with goat anti-mouse antibodies (Pierce) and secondly with anti-ATR antibody 224C. A hybridoma which secretes antibody 224C was deposited with the American Type Culture Collection (ATCC), 12301 Parklawn Drive, Rockville, Md. 20852 on Nov. 7, 1996 and assigned ATCC Accession Nos. HB 12233. The 224C antibody was added to the plate at a concentration of […] in BT blocking buffer and incubated for at least 30 hours at 4° C. The wells were washed with TBS containing 0.05% Tween® 20 and mouse testes extract (prepared as described in Example 6 of WO 97/18323 published May 22, 1997 from International Application No. PCT/US96/19337, incorporated herein by reference) was added. […]
The supernatant, containing the ^32P-labeled peptide was transferred to P81 phosphocellulose paper, the paper was washed three times with 100 mM phosphoric acid (to remove unincorporated label) and once with ethanol, and Cerenkov radiation (in counts per minute, cpm) was counted in a scintillation counter.
MyoD is a 319 amino acid transcription factor that is often phosphorylated in cells. As described in Example 6 (of WO 97/18323), it has been determined that ATR phosphorylates MyoD in in vitro kinase assays and the target serine residue in myoD has been identified using a MyoD deletion peptide, B-HLH containing amino acids 102 through 165. […]

T1 sequence (Q9JKK8 whole entry): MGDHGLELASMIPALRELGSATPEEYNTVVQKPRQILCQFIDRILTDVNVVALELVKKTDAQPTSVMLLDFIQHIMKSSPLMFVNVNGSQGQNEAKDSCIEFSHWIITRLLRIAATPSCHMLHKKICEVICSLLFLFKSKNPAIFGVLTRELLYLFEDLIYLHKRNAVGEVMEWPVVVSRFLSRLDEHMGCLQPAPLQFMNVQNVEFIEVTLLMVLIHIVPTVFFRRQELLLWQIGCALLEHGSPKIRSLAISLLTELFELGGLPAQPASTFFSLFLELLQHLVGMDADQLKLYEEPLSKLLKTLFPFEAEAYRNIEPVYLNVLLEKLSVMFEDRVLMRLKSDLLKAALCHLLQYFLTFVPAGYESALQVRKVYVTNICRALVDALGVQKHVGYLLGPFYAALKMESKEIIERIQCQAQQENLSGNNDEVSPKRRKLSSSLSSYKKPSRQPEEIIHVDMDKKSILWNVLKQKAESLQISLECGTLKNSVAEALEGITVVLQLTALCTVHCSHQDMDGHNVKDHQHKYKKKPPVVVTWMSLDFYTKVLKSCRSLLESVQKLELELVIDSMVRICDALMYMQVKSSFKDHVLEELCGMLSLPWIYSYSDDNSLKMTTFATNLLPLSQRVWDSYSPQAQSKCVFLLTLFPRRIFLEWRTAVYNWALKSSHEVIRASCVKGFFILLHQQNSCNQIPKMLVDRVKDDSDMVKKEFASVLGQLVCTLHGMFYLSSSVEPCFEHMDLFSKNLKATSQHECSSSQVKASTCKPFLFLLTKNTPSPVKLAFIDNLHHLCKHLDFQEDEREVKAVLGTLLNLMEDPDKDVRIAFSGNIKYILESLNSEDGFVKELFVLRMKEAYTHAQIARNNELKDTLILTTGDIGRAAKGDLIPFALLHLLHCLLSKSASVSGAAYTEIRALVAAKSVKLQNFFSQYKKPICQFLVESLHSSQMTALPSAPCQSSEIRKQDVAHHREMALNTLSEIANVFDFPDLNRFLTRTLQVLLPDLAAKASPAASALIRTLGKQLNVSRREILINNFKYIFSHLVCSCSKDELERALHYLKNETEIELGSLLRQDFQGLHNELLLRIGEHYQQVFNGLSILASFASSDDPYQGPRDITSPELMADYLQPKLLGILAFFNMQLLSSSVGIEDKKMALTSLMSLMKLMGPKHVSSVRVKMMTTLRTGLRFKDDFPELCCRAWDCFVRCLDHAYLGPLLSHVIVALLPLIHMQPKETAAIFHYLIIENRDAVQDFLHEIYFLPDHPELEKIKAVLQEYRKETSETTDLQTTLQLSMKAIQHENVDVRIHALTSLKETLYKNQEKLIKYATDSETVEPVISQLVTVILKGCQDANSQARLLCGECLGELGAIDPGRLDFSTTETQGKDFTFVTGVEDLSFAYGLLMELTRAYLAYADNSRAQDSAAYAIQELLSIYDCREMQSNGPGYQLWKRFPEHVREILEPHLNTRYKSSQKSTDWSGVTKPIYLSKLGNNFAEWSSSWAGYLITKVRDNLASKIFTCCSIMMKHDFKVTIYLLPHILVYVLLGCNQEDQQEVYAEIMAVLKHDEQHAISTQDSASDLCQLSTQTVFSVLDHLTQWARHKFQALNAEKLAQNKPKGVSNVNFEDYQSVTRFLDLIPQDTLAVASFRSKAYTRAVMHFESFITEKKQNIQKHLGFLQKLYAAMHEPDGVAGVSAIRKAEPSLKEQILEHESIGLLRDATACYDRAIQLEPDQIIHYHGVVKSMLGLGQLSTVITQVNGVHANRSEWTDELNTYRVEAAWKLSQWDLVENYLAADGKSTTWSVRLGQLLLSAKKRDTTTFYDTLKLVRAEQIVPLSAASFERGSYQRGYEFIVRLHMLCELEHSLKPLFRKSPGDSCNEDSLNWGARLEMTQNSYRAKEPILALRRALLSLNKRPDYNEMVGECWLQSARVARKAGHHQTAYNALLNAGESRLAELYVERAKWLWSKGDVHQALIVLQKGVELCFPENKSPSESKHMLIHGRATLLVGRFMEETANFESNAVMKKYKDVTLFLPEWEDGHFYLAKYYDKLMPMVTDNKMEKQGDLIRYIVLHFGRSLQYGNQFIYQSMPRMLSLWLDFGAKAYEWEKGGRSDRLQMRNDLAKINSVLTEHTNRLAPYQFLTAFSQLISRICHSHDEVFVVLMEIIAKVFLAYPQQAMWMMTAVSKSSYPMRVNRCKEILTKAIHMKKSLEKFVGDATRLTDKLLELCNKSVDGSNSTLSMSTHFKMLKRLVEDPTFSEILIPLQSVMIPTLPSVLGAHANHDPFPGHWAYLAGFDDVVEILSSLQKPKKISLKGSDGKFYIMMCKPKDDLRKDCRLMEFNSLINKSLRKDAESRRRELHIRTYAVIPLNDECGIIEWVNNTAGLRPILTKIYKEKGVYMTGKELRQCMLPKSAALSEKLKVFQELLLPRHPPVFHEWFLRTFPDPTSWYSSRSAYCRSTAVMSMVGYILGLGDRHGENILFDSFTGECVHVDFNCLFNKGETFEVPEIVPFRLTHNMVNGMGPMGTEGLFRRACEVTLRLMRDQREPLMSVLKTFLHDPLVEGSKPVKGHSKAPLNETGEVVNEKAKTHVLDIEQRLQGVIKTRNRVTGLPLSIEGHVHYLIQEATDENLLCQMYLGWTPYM
T1 sequence (Q8BMG1 whole entry partner): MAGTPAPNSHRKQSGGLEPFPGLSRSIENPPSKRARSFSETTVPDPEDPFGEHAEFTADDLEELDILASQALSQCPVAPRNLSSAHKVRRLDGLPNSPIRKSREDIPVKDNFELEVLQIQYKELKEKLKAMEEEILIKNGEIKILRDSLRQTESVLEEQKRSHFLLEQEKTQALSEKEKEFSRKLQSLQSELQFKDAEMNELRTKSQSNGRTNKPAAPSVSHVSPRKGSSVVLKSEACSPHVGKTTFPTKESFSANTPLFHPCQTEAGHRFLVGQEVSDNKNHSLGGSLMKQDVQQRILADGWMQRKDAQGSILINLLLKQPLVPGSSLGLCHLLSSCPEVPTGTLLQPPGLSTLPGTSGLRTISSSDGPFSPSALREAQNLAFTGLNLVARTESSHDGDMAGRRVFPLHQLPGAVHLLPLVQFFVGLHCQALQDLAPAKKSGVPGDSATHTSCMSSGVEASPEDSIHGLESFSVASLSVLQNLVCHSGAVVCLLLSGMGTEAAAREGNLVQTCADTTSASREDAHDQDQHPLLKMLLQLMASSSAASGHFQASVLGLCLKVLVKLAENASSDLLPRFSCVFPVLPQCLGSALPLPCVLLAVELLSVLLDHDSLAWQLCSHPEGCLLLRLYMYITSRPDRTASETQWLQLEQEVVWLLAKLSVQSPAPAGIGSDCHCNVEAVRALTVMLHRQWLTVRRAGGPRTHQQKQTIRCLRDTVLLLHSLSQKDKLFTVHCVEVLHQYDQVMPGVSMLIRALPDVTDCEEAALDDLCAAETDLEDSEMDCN

Substance: NH2-Leu-Lys-Arg-Cys-Thr-Ser-Ser-Asn-Pro-Asn-Gln-Arg-Leu-Pro-Lys-COOH (H-LKRCTSSNPNQRLPK-OH) [IDH22]
- phosphorylation of peptide by ATR: phosphorylated
